# Source: patent US20150065421A1, “BASAL INSULIN THERAPY” (SANOFI, priority 2012, published 2015)
# What was measured:
# [1] = system: people at high risk for vascular disease with either IFG, IGT, or early type 2 diabetes; assay: ORIGIN trial: hypoglycemia, weight change and glargine adherence; assay type: in vivo, human
# Text: Participants were asked to self-administer daily subcutaneous saline injections and to check their capillary glucose levels during a 10 day run-in period. Adherent participants were then provided with lifestyle advice and randomly allocated to either insulin glargine (Lantus™) or standard approaches to glycaemic control. Participants allocated to insulin glargine who were also taking a thiazolidinedione stopped that medication at the time of randomization; otherwise the insulin glargine was added to their glycemic regimen. These participants were instructed to inject insulin glargine in the evening, starting at 2, 4 or 6 units (depending on their initial FPG) and to increase the dose at least once per week targeting a self-measured FPG level ≦5.3 mmol/l (95 mg/dl) and ≧4 mmol/l (72 mg/dl). […] If participants developed uncontrolled hyperglycemia, investigators were permitted to add rapid-acting insulin. No other glucose-lowering medication could be added or increased. FPG levels were measured in the local laboratory at every visit and the results were regularly reviewed along with the dose of insulin to ensure that insulin was being effectively trirated. People not diagnosed with diabetes by the time of the penultimate study visit down-titrated insulin glargine by 10 units per day and stopped any metformin that was prescribed.
# Outcomes and other data were collected at scheduled study visits at 0.5, 1, 2, and 4 months after randomization and every 4 months thereafter. Weight, waist and hip circumference were measured annually. HbA1c levels were assayed in local laboratories at every visit for the first year and then annually in people without diabetes and every 4 months for people with diabetes. A first morning urine collection was sent centrally and assayed for creatinine and albumin at baseline, 2 yrs and study end.
# There were 2 co-primary composite CV outcomes. The first was CV death, non-fatal MI or non-fatal stroke, and the second was a composite of any of these events or a revascularization procedure or hospitalization for heart failure. Secondary outcomes included a composite microvascular outcome comprising a doubling of serum creatinine from baseline, progression of albuminuria category from normoalbuminuria or microalbuminuria to microalbuminuria or overt nephropathy, renal replacement therapy, renal death, retinal photocoagulation or vitrectomy for retinopathy. They also included new type 2 diabetes developing by the time of the 1st post-trial oral glucose tolerance test in participants without baseline diabetes, and all-cause mortality. Other outcomes included incident cancers, CV hospitalizations, and angina. Cardiovascular and cancer outcomes were reviewed by adjudicators masked to treatment allocation. Episodes of hypoglycaemia since the prior visit were recorded at each visit. Symptomatic hypoglycemia was classified as confirmed if a concomitant recorded capillary glucose level was <3 mmol/L (54 mg/dL). Severe hypoglycemia was defined as hypoglycemia that required assistance plus either prompt recovery with glucose or glucagon or a documented capillary glucose ≦2.0 (36 mg/dL). New diabetes was diagnosed if 2 consecutive FPG levels within a 4-month period were ≧7 mM (126 mg/dL) during the trial; a diagnosis of diabetes was made by a physician and a pharmacologic antidiabetic agent was being taken and there was evidence of either a FPG ≧7 mM (126 mg/dL) or any glucose value ≧11.1 mM (200 mg/dL); either 1 or more capillary glucose levels were ≧11.1 mM (200 mg/dl) and a lab-measured FPG was ≧7 mmol/l (126 mg/dl) or a lab measured random glucose level was ≧11.1 mM (200 mg/dl) during down-titration of glargine insulin; or any FPG was ≧7 mM (126 mg/dl) or 2 hour plasma glucose was ≧11.1 mM (200 mg/dl) during the first oral glucose tolerance test.
# [2] = system: people at high risk for vascular disease with either IFG, IGT, or early type 2 diabetes; assay: ORIGIN trial: cognition outcomes (Mini-Mental Status Exam); assay type: in vivo, human
# Text: Defined by serial cognitive testing (e.g., mini-mental status examination [MMSE]).
# Overall, there was a strong trend (p=0.075) for glargine treatment to be associated with fewer impaired patients. The data, as summarized in Table 7, reflect the Mini-Mental Status Exam (MMSE) data for the number of participants scoring 24 or less at various timepoints (mild impairment). These patients were examined because they represent those at greater risk of further deterioration during the study, and still with enough patients to confer adequate power to make statistical comparisons. There was a significant reduction of cases of mild impairment from baseline at about 4 years.
# [3] = cited from earlier work
substance,measurement,setting,value
(Gly A21) Arg (B31) Arg (B32) human insulin [insulin glargine],more severe hypoglycemia episodes than standard care,[1]; absolute risk difference,approximately 0.7 per 100 person-years
same,more suspected or confirmed hypoglycemia episodes than standard care,[1]; absolute risk difference,~11 per 100 person-years
same,annual incidence of severe hypoglycemia,[1]; basal insulin in ORIGIN,1.00%
same,"Reason Stopped: N Hyperglycemia (%), Ever Off",[1]; first time off,4 (0.15) N (%)
same,"Reason Stopped: N Hypoglycemia (%), Ever Off",[1]; first time off,218 (8.2) N (%)
same,"Reason Stopped: N Wt Gain (%), Ever Off",[1]; first time off,4 (0.15) N (%)
same,risk of hypoglycemia relative to standard care participants,[1]; higher,approximately 3 fold
same,"Any Symptomatic Hypoglycemia, Mean Number of Episodes/yr",[1]; in vivo,2.6 (4.1) Episodes/yr
same,"Any Symptomatic Hypoglycemia, No Episodes During Follow-up (%)",[1]; in vivo,2691 (43.0) N (%)
same,"Confirmed Symptomatic Hypoglycemia, Mean Number of Episodes/yr",[1]; in vivo,1.3 (2.3) Episodes/yr
same,No Confirmed Episodes During follow-up (%),[1]; in vivo,3652 (58.3) N (%)
same,incidence of the first episode of any (confirmed or unconfirmed) hypoglycemia,[1]; insulin glargine group,16.73 per 100 person-years
same,mean weight gain,[1]; insulin glargine group,1.6 kg
same,participants without any episode of symptomatic hypoglycemia during the entire trial (number),[1]; insulin glargine group,2691 participants
same,incidence of the first episode of nonsevere symptomatic hypoglycemia confirmed by a self-measured glucose level 3 mmol/l (54 mg/dl),"[1]; insulin glargine group, P<0.001",9.81 per 100 person-years
same,incidence of the first episode of severe hypoglycemia,"[1]; insulin glargine group, P<0.001 vs standard care",1.00 per 100 person-years
same,participants without any episode of symptomatic hypoglycemia during the entire trial (percent),"[1]; insulin glargine group, median 6.2 years",43%
same,"Reason Stopped: N Hyperglycemia (%), Permanently Off",[1]; last time off and stayed off,2 (0.2) N (%)
same,"Reason Stopped: N Hypoglycemia (%), Permanently Off",[1]; last time off and stayed off,42 (4.0) N (%)
same,"Reason Stopped: N Wt Gain (%), Permanently Off",[1]; last time off and stayed off,4 (0.4) N (%)
same,"Severe Hypoglycemia, Total Episodes During Follow-up",[1]; median follow-up 6.2 years,457
same,"Any Symptomatic Hypoglycemia, ≧1 Episode (N/100py)",[1]; nonsevere,3573 (16.73) N/100py
same,"Confirmed Symptomatic Hypoglycemia, ≧1 Confirmed Episode (N/100py)","[1]; nonsevere, self-measured glucose ≦3 mmol/l (54 mg/dl)",2612 (9.81) N/100py
same,"Severe Hypoglycemia, ≧1 Episode (N/100py)","[1]; participants (rate per 100 person-years), P<0.001 vs standard care",359 (1.00) N/100py
same,1 or more nonsevere hypoglycemic episodes confirmed by glucose <3 mmol/l (<54 mg/dl),[1]; people with diabetes at enrollment,10.5 per 100 person-years
same,1 or more nonsevere hypoglycemic episodes confirmed by glucose <3 mmol/l (<54 mg/dl),[1]; people without diabetes at enrollment,5.7 per 100 person-years
same,"participants scoring 24 or less in MMSE (mild impairment), N (%)","[2]; 2 years, P 0.823 vs standard, baseline 483 (7.7)",433 (7.6) N (%)
same,"participants scoring 24 or less in MMSE (mild impairment), N (%)","[2]; Any measure, P 0.075 vs standard",605 (10.4) N (%)
same,"participants scoring 24 or less in MMSE (mild impairment), N (%)","[2]; End of study, P 0.358 vs standard",464 (9.6) N (%)
same,"participants scoring 24 or less in MMSE (mild impairment), N (%)","[2]; ~4 years, P 0.022 vs standard",449 (9.0) N (%)
same,mean duration of action,[3]; in vivo,approximately 20 hours
same,duration of glucose lowering effect,"[3]; smooth, without a definite peak",24 h
